According to patent publication US20180155406A1 (Sanofi, published 2018):
Numbered stars: 1 amine (or outer) side, 2 acyl side, 3 side chain; on linkers, the order of the positions; unused ones are H or OH. Square brackets hold non-standard residues; d marks the D form. Side chains are listed from the residue outwards. Ends that are not written are not given here. * marks the point of attachment. γGlu = O=C(O)[C@H](CCC(=O)[*:2])N[*:1]; Palmitoyl = CCCCCCCCCCCCCCCC(=O)*; Aib = CC(C)(N)C(=O)O

B1: SEQ ID NO: 13 (peptide)
peptide: H[Aib]HGTFTSDLSKLK([γGlu-γGlu-Palmitoyl])EEQRQ[Aib]EFIEWLKA[dA]GHPS[Aib]KPPPK-NH2
modifications: N-terminus assumed
SMILES: CCCCCCCCCCCCCCCC(=O)N[C@@H](CCC(=O)N[C@@H](CCC(=O)NCCCC[C@H](NC(=O)[C@H](CC(C)C)NC(=O)[C@H](CCCCN)NC(=O)[C@H](CO)NC(=O)[C@H](CC(C)C)NC(=O)[C@H](CC(=O)O)NC(=O)[C@H](CO)NC(=O)[C@@H](NC(=O)[C@H](Cc1ccccc1)NC(=O)[C@@H](NC(=O)CNC(=O)[C@H](Cc1c[nH]cn1)NC(=O)C(C)(C)NC(=O)[C@@H](N)Cc1c[nH]cn1)[C@@H](C)O)[C@@H](C)O)C(=O)N[C@@H](CCC(=O)O)C(=O)N[C@@H](CCC(=O)O)C(=O)N[C@@H](CCC(N)=O)C(=O)N[C@@H](CCCNC(=N)N)C(=O)N[C@@H](CCC(N)=O)C(=O)NC(C)(C)C(=O)N[C@@H](CCC(=O)O)C(=O)N[C@@H](Cc1ccccc1)C(=O)N[C@H](C(=O)N[C@@H](CCC(=O)O)C(=O)N[C@@H](Cc1c[nH]c2ccccc12)C(=O)N[C@@H](CC(C)C)C(=O)N[C@@H](CCCCN)C(=O)N[C@@H](C)C(=O)N[C@H](C)C(=O)NCC(=O)N[C@@H](Cc1c[nH]cn1)C(=O)N1CCC[C@H]1C(=O)N[C@@H](CO)C(=O)NC(C)(C)C(=O)N[C@@H](CCCCN)C(=O)N1CCC[C@H]1C(=O)N1CCC[C@H]1C(=O)N1CCC[C@H]1C(=O)N[C@@H](CCCCN)C(N)=O)[C@@H](C)CC)C(=O)O)C(=O)O
B2: SEQ ID NO: 10 (peptide)
peptide: H[Aib]HGTFTSDLSKLK([γGlu-γGlu-Palmitoyl])EEQRQ[Aib]EFIEWLKAGGPPS[Aib]KPPPK-NH2
modifications: N-terminus assumed
SMILES: CCCCCCCCCCCCCCCC(=O)N[C@@H](CCC(=O)N[C@@H](CCC(=O)NCCCC[C@H](NC(=O)[C@H](CC(C)C)NC(=O)[C@H](CCCCN)NC(=O)[C@H](CO)NC(=O)[C@H](CC(C)C)NC(=O)[C@H](CC(=O)O)NC(=O)[C@H](CO)NC(=O)[C@@H](NC(=O)[C@H](Cc1ccccc1)NC(=O)[C@@H](NC(=O)CNC(=O)[C@H](Cc1c[nH]cn1)NC(=O)C(C)(C)NC(=O)[C@@H](N)Cc1c[nH]cn1)[C@@H](C)O)[C@@H](C)O)C(=O)N[C@@H](CCC(=O)O)C(=O)N[C@@H](CCC(=O)O)C(=O)N[C@@H](CCC(N)=O)C(=O)N[C@@H](CCCNC(=N)N)C(=O)N[C@@H](CCC(N)=O)C(=O)NC(C)(C)C(=O)N[C@@H](CCC(=O)O)C(=O)N[C@@H](Cc1ccccc1)C(=O)N[C@H](C(=O)N[C@@H](CCC(=O)O)C(=O)N[C@@H](Cc1c[nH]c2ccccc12)C(=O)N[C@@H](CC(C)C)C(=O)N[C@@H](CCCCN)C(=O)N[C@@H](C)C(=O)NCC(=O)NCC(=O)N1CCC[C@H]1C(=O)N1CCC[C@H]1C(=O)N[C@@H](CO)C(=O)NC(C)(C)C(=O)N[C@@H](CCCCN)C(=O)N1CCC[C@H]1C(=O)N1CCC[C@H]1C(=O)N1CCC[C@H]1C(=O)N[C@@H](CCCCN)C(N)=O)[C@@H](C)CC)C(=O)O)C(=O)O
B3: SEQ ID NO: 11 (peptide)
peptide: H[Aib]HGTFTSDLSKLK([γGlu-γGlu-Palmitoyl])EEQRQ[Aib]EFIEWLKA[dA]GPPS[Aib]KPPPK-NH2
modifications: N-terminus assumed
SMILES: CCCCCCCCCCCCCCCC(=O)N[C@@H](CCC(=O)N[C@@H](CCC(=O)NCCCC[C@H](NC(=O)[C@H](CC(C)C)NC(=O)[C@H](CCCCN)NC(=O)[C@H](CO)NC(=O)[C@H](CC(C)C)NC(=O)[C@H](CC(=O)O)NC(=O)[C@H](CO)NC(=O)[C@@H](NC(=O)[C@H](Cc1ccccc1)NC(=O)[C@@H](NC(=O)CNC(=O)[C@H](Cc1c[nH]cn1)NC(=O)C(C)(C)NC(=O)[C@@H](N)Cc1c[nH]cn1)[C@@H](C)O)[C@@H](C)O)C(=O)N[C@@H](CCC(=O)O)C(=O)N[C@@H](CCC(=O)O)C(=O)N[C@@H](CCC(N)=O)C(=O)N[C@@H](CCCNC(=N)N)C(=O)N[C@@H](CCC(N)=O)C(=O)NC(C)(C)C(=O)N[C@@H](CCC(=O)O)C(=O)N[C@@H](Cc1ccccc1)C(=O)N[C@H](C(=O)N[C@@H](CCC(=O)O)C(=O)N[C@@H](Cc1c[nH]c2ccccc12)C(=O)N[C@@H](CC(C)C)C(=O)N[C@@H](CCCCN)C(=O)N[C@@H](C)C(=O)N[C@H](C)C(=O)NCC(=O)N1CCC[C@H]1C(=O)N1CCC[C@H]1C(=O)N[C@@H](CO)C(=O)NC(C)(C)C(=O)N[C@@H](CCCCN)C(=O)N1CCC[C@H]1C(=O)N1CCC[C@H]1C(=O)N1CCC[C@H]1C(=O)N[C@@H](CCCCN)C(N)=O)[C@@H](C)CC)C(=O)O)C(=O)O
B4: SEQ ID NO: 9 (peptide)
peptide: H[Aib]HGTFTSDLSKLK([γGlu-γGlu-Palmitoyl])EEQRQKEFIEWLKA[dA]GPPS[Aib]KPPPK-NH2
modifications: N-terminus assumed
SMILES: CCCCCCCCCCCCCCCC(=O)N[C@@H](CCC(=O)N[C@@H](CCC(=O)NCCCC[C@H](NC(=O)[C@H](CC(C)C)NC(=O)[C@H](CCCCN)NC(=O)[C@H](CO)NC(=O)[C@H](CC(C)C)NC(=O)[C@H](CC(=O)O)NC(=O)[C@H](CO)NC(=O)[C@@H](NC(=O)[C@H](Cc1ccccc1)NC(=O)[C@@H](NC(=O)CNC(=O)[C@H](Cc1c[nH]cn1)NC(=O)C(C)(C)NC(=O)[C@@H](N)Cc1c[nH]cn1)[C@@H](C)O)[C@@H](C)O)C(=O)N[C@@H](CCC(=O)O)C(=O)N[C@@H](CCC(=O)O)C(=O)N[C@@H](CCC(N)=O)C(=O)N[C@@H](CCCNC(=N)N)C(=O)N[C@@H](CCC(N)=O)C(=O)N[C@@H](CCCCN)C(=O)N[C@@H](CCC(=O)O)C(=O)N[C@@H](Cc1ccccc1)C(=O)N[C@H](C(=O)N[C@@H](CCC(=O)O)C(=O)N[C@@H](Cc1c[nH]c2ccccc12)C(=O)N[C@@H](CC(C)C)C(=O)N[C@@H](CCCCN)C(=O)N[C@@H](C)C(=O)N[C@H](C)C(=O)NCC(=O)N1CCC[C@H]1C(=O)N1CCC[C@H]1C(=O)N[C@@H](CO)C(=O)NC(C)(C)C(=O)N[C@@H](CCCCN)C(=O)N1CCC[C@H]1C(=O)N1CCC[C@H]1C(=O)N1CCC[C@H]1C(=O)N[C@@H](CCCCN)C(N)=O)[C@@H](C)CC)C(=O)O)C(=O)O
B5: SEQ ID NO: 7 (peptide)
peptide: H[Aib]HGTFTSDLSKLK([γGlu-γGlu-Palmitoyl])EEQRQKEFIEWLKA[dA]GHPS[Aib]KPPPK-NH2
modifications: N-terminus assumed
SMILES: CCCCCCCCCCCCCCCC(=O)N[C@@H](CCC(=O)N[C@@H](CCC(=O)NCCCC[C@H](NC(=O)[C@H](CC(C)C)NC(=O)[C@H](CCCCN)NC(=O)[C@H](CO)NC(=O)[C@H](CC(C)C)NC(=O)[C@H](CC(=O)O)NC(=O)[C@H](CO)NC(=O)[C@@H](NC(=O)[C@H](Cc1ccccc1)NC(=O)[C@@H](NC(=O)CNC(=O)[C@H](Cc1c[nH]cn1)NC(=O)C(C)(C)NC(=O)[C@@H](N)Cc1c[nH]cn1)[C@@H](C)O)[C@@H](C)O)C(=O)N[C@@H](CCC(=O)O)C(=O)N[C@@H](CCC(=O)O)C(=O)N[C@@H](CCC(N)=O)C(=O)N[C@@H](CCCNC(=N)N)C(=O)N[C@@H](CCC(N)=O)C(=O)N[C@@H](CCCCN)C(=O)N[C@@H](CCC(=O)O)C(=O)N[C@@H](Cc1ccccc1)C(=O)N[C@H](C(=O)N[C@@H](CCC(=O)O)C(=O)N[C@@H](Cc1c[nH]c2ccccc12)C(=O)N[C@@H](CC(C)C)C(=O)N[C@@H](CCCCN)C(=O)N[C@@H](C)C(=O)N[C@H](C)C(=O)NCC(=O)N[C@@H](Cc1c[nH]cn1)C(=O)N1CCC[C@H]1C(=O)N[C@@H](CO)C(=O)NC(C)(C)C(=O)N[C@@H](CCCCN)C(=O)N1CCC[C@H]1C(=O)N1CCC[C@H]1C(=O)N1CCC[C@H]1C(=O)N[C@@H](CCCCN)C(N)=O)[C@@H](C)CC)C(=O)O)C(=O)O

Legend:
Assay in all cases: cell-based or functional assay
human GLP-1 receptor = human GLP-1 receptor (human, UniProt P43220 24-463)
human glucagon receptor = human glucagon receptor (human, UniProt P47871 26-477)
human GIP receptor = molecular target: T1, human GIP receptor (human, UniProt P48546 22-466)
T1 sequence (looked up): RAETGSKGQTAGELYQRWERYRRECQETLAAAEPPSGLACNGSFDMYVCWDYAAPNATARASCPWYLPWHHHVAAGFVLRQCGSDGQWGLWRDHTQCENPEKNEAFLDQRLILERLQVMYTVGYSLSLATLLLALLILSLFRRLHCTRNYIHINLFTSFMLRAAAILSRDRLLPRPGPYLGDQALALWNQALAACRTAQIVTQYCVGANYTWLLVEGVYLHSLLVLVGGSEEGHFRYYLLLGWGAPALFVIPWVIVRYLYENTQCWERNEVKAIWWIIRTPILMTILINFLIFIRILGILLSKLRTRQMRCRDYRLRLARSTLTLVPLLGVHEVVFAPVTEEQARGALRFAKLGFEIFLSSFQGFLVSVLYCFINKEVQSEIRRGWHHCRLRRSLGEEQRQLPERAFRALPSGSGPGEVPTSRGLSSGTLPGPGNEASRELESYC

Sequence of human glucagon receptor (P47871 26-477): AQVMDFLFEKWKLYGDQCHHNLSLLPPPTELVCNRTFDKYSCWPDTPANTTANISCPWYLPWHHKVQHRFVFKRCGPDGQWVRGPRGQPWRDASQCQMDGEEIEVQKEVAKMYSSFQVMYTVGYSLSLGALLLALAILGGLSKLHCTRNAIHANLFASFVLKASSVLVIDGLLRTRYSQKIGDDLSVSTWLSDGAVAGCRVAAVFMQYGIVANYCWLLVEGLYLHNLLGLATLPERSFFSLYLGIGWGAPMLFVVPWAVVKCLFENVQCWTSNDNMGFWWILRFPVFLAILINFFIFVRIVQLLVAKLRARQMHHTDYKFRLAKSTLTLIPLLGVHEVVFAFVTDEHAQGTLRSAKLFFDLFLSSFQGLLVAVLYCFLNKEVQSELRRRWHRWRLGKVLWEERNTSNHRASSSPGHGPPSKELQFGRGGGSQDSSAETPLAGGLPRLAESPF

| Binder | EC50 hGLP-1R (cAMP formation) (human GLP-1 receptor) | EC50 hGlucagon R (cAMP formation) (human glucagon receptor) | EC50 hGIP R (cAMP formation) (human GIP receptor) |
| --- | --- | --- | --- |
| B1 | 2.8 pM | 2.1 pM | 2.7 pM |
| B2 | 2.3 pM | 1.6 pM | 1.1 pM |
| H[Aib]HGTFTSDLSKLK([γGlu-γGlu-Palmitoyl])EEQRQ[Aib]EFIEWLKAGGHPS[Aib]KPPPK-NH2 [SEQ ID NO: 12] | 1.8 pM | 2 pM | 1.9 pM |
| B3 | 2.9 pM | 2.1 pM | 1.5 pM |
| B4 | 1.6 pM | 2.9 pM | 2.6 pM |
| H[Aib]HGTFTSDLSKLK([γGlu-γGlu-Palmitoyl])EEQRQKEFIEWLKAGGPPS[Aib]KPPPK-NH2 [SEQ ID NO: 8] | 1.3 pM | 2 pM | 1.6 pM |
| B5 | 1.7 pM | 3.2 pM | 2.6 pM |
